Assay results published in article PMC13006735.
Like-named read-outs stand apart in the source and are kept apart here.

Experiments:
[1] = biological target: Ebola virus (EBOV, Zaire) glycoprotein GP, wild type (Ebola virus (EBOV, Zaire)) (UniProt Q05320)
[2] = biological target: Sudan virus (SUDV) glycoprotein GP (Sudan virus (SUDV)) (UniProt Q7T9D9)
[3] = biological target: Sudan virus (SUDV) glycoprotein GP (Sudan virus (SUDV)) (UniProt Q7T9D9); remark: listed apart in the source

Substance | IC50, neutralisation of EBOV GP pseudovirus (luciferase, Huh7 cells) [1] [µg/mL] | IC90, neutralisation of EBOV GP pseudovirus (luciferase, Huh7 cells) [1] [µg/mL] | IC90, neutralisation of SUDV GP pseudovirus (luciferase, Huh7 cells) [2] [µg/mL] | IC50, neutralisation of SUDV GP pseudovirus (luciferase, Huh7 cells) [3] [µg/mL] | IC90, neutralisation of SUDV GP pseudovirus (luciferase, Huh7 cells) [3] [µg/mL]
A50Y/S52Y/L54R-LC (ADI-15946 light chain triple mutant) (antibody) | 0.15 | 1.1 |  |  | 
ADI-15878 (antibody) |  |  | 0.3 | 0.04 | 0.9
H27Q/S52Y/G66R-LC (ADI-15946 light chain triple mutant) (antibody) | 0.15 | 0.86 |  |  | 
